Series [1] deals with HeLa Kyoto. Kind of series: solubility in G1/S (NP-40 vs SDS abundance) (log2 ratio); higher = more soluble. The conditions noted are these: cell cycle stage: G1/S.
Series [2] deals with HeLa Kyoto. Kind of series: melting temperature (median over replicates), in situ; higher = more thermally stable.
The subject of series [3] is HeLa Kyoto. Kind of series: solubility change mitosis vs G1/S (difference of NP-40 vs SDS log2 ratios) (log2 ratio difference); higher = more soluble in mitosis.
Series [4] has as its system HeLa Kyoto. Kind of series: thermal stability score vs G1/S (z-score of summed log2 fold changes over temperatures); higher = more thermally stable than in G1/S.
[5] abbreviates: cell cycle stage: early G1 (4.5 h after nocodazole release).

The record followed here is the supplement of paper PMC5998384.
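Throughout, for melting temperature (median over replicates), in situ: HeLa Kyoto cells synchronized by double thymidine or nocodazole block, proteins quantified by TMT10plex mass spectrometry, three independent biological replicates.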
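Throughout, for solubility change mitosis vs G1/S (difference of NP-40 vs SDS log2 ratios): synchronized HeLa Kyoto cells (double thymidine block for G1/S, nocodazole release for mitosis), protein amounts in NP-40 versus SDS lysates quantified by mass spectrometry, three biological replicates.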
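Throughout, for solubility in G1/S (NP-40 vs SDS abundance): HeLa Kyoto cells arrested at G1/S by double thymidine block, proteins quantified by TMT10plex mass spectrometry in mild NP-40 versus SDS extracts, three biological replicates.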
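Throughout, for thermal stability score vs G1/S (z-score of summed log2 fold changes over temperatures): synchronized HeLa Kyoto cells, proteins quantified by TMT10plex mass spectrometry, three biological replicates, mitosis taken 0.5 h after nocodazole release, G1/S directly after double thymidine block.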

With “MGRRRAPAGGSLGRALMRHQTQRSRSHRHTDSWLHTSELNDGYDWGRLNLQSVTEQSSLDDFLATAELAGTEFVAEKLNIKFVPAEARTGLLSFEESQRIKKLHEENKQFLCIPRRPNWNQNTTPEELKQAEKDNFLEWRRQLVRLEEEQKLILTPFERNLDFWRQLWRVIERSDIVVQIVDARNPLLFRCEDLECYVKEMDANKENVILINKADLLTAEQRSAWAMYFEKEDVKVIFWSALAGAIPLNGDSEEEANRDDRQSNTTKFGHSSFDQAEISHSESEHLPARDSPSLSENPTTDEDDSEYEDCPEEEEDDWQTCSEEDGPKEEDCSQDWKESSTADSEARSRKTPQKRQIHNFSHLVSKQELLELFKELHTGRKVKDGQLTVGLVGYPNVGKSSTINTIMGNKKVSVSATPGHTKHFQTLYVEPGLCLCDCPGLVMPSFVSTKAEMTCSGILPIDQMRDHVPPVSLVCQNIPRHVLEATYGINIITPREDEDPHRPPTSEELLTAYGYMRGFMTAHGQPDQPRSARYILKDYVSGKLLYCHPPPGRDPVTFQHQHQRLLENKMNSDEIKMQLGRNKKAKQIENIVDKTFFHQENVRALTKGVQAVMGYKPGSGVVTASTASSENGAGKPWKKHGNRNKKEKSRRLYKHLDM [LSG1]”, the “solubility in G1/S (log2)” value with HeLa Kyoto [1] is -0.366. For the same sequence, the melting temperature with HeLa Kyoto [2] (cell cycle stage: G1/S) and in the series with HeLa Kyoto [2] (cell cycle stage: mitosis) was 49 °C each time. Besides, in the series on HeLa Kyoto [3], the “solubility change mitosis (log2)” value was determined as 0.0936. Besides, the values for the thermal stability score with HeLa Kyoto [4] (setting [5]) and in the series on HeLa Kyoto [4] (cell cycle stage: mitosis) were 0.926 and 1.89, respectively.
As for “MGRTSKDKRDVYYRLAKENGWRARSAFKLLQLDKEFQLFQGVTRAVDLCAAPGSWSQVLSQKIGGQGSGHVVAVDLQAMAPLPGVVQIQGDITQLSTAKEIIQHFKGCPADLVVCDGAPDVTGLHDVDEYMQAQLLLAALNIATHVLKPGGCFVAKIFRGRDVTLLYSQLQVFFSSVLCAKPRSSRNSSIEAFAVCQGYDPPEGFIPDLSKPLLDHSYDPDFNQLDGPTRIIVPFVTCGDLSSYDSDRSYPLDLEGGSEYKYTPPTQPPISPPYQEACTLKRKGQLAKEIRPQDCPISRVDTFPQPLAAPQCHTLLAPEMEDNEMSCSP [FTSJ1]”, the “solubility in G1/S (log2)” value in the series on HeLa Kyoto [1] was found to be 0.332. For the same sequence, the figures for the melting temperature in the series with HeLa Kyoto [2] (cell cycle stage: G1/S) and in the series on HeLa Kyoto [2] (cell cycle stage: mitosis) were 51.4 °C and 50.5 °C, respectively. Besides, in the series on HeLa Kyoto [3], the “solubility change mitosis (log2)” value turned out to be 0.07. In addition, the thermal stability score with HeLa Kyoto [4] (setting [5]) was -0.919; with HeLa Kyoto [4] (cell cycle stage: mitosis), -0.299.
With “MGRTYIVEETVGQYLSNINLQGKAFVSGLLIGQCSSQKDYVILATRTPPKEEQSENLKHPKAKLDNLDEEWATEHACQVSRMLPGGLLVLGVFIITTLELANDFQNALRRLMFAVEKSINRKRLWNFTEEEVSERVTLHICASTKKIFCRTYDIHDPKSSARPADWKYQSGLSSSWLSLECTVHINIHIPLSATSVSYTLEKNTKNGLTRWAKEIENGVYLINGQVKDEDCDLLEGQKKSSRGNTQATSHSFDVRVLTQLLLNSDHRSTATVQICSGSVNLKGAVKCRAYIHSSKPKVKDAVQAVKRDILNTVADRCEMLFEDLLLNEIPEKKDSEKEFHVLPYRVFVPLPGSTVMLCDYKFDDESAEEIRDHFMEMLDHTIQIEDLEIAEETNTACMSSSMNSQASLDNTDDEQPKQPIKTTMLLKIQQNIGVIAAFTVAVLAAGISFHYFSD [ODR4]”, the “solubility in G1/S (log2)” value with HeLa Kyoto [1] was -0.0468. The melting temperature in the series on HeLa Kyoto [2] (cell cycle stage: G1/S) came to 50.6 °C; with HeLa Kyoto [2] (cell cycle stage: mitosis), 51.1 °C. For the same sequence, the “solubility change mitosis (log2)” value in the series with HeLa Kyoto [3] is -0.0887. Further, the thermal stability score with HeLa Kyoto [4] (setting [5]) was 0.605; with HeLa Kyoto [4] (cell cycle stage: mitosis), 0.226.
For the sequence “MGSGPIDPKELLKGLDSFLNRDGEVKSVDGISKIFSLMKEARKMVSRCTYLNILLQTRSPEILVKFIDVGGYKLLNNWLTYSKTTNNIPLLQQILLTLQHLPLTVDHLKQNNTAKLVKQLSKSSEDEELRKLASVLVSDWMAVIRSQSSTQPAEKDKKKRKDEGKSRTTLPERPLTEVKAETRAEEAPEKKREKPKSLRTTAPSHAKFRSTGLELETPSLVPVKKNASTVVVSDKYNLKPIPLKRQSNVAAPGDATPPAEKKYKPLNTTPNATKEIKVKIIPPQPMEGLGFLDALNSAPVPGIKIKKKKKVLSPTAAKPSPFEGKTSTEPSTAKPSSPEPAPPSEAMDADRPGTPVPPVEVPELMDTASLEPGALDAKPVESPGDPNQLTRKGRKRKSVTWPEEGKLREYFYFELDETERVNVNKIKDFGEAAKREILSDRHAFETARRLSHDNMEEKVPWVCPRPLVLPSPLVTPGSNSQERYIQAEREKGILQELFLNKESPHEPDPEPYEPIPPKLIPLDEECSMDETPYVETLEPGGSGGSPDGAGGSKLPPVLANLMGSMGAGKGPQGPGGGGINVQEILTSIMGSPNSHPSEELLKQPDYSDKIKQMLVPHGLLGPGPIANGFPPGGPGGPKGMQHFPPGPGGPMPGPHGGPGGPVGPRLLGPPPPPRGGDPFWDGPGDPMRGGPMRGGPGPGPGPYHRGRGGRGGNEPPPPPPPFRGARGGRSGGGPPNGRGGPGGGMVGGGGHRPHEGPGGGMGNSSGHRPHEGPGGGMGSGHRPHEGPGGSMGGGGGHRPHEGPGGGISGGSGHRPHEGPGGGMGAGGGHRPHEGPGGSMGGSGGHRPHEGPGHGGPHGHRPHDVPGHRGHDHRGPPPHEHRGHDGPGHGGGGHRGHDGGHSHGGDMSNRPVCRHFMMKGNCRYENNCAFYHPGVNGPPLP [PPP1R10]”, the “solubility in G1/S (log2)” value in the series on HeLa Kyoto [1] worked out at 0.0711. Also, the melting temperature in the series on HeLa Kyoto [2] (cell cycle stage: G1/S) was 51 °C; with HeLa Kyoto [2] (cell cycle stage: mitosis), 50.8 °C. The “solubility change mitosis (log2)” value in the series on HeLa Kyoto [3] was found to be 0.274. Also, the results for the thermal stability score with HeLa Kyoto [4] (setting [5]) and in the series with HeLa Kyoto [4] (cell cycle stage: mitosis) were 4.23 and 3.65, respectively.
